Target: NTF2-like domain of human G3BP1 (residues 1-139) (human, UniProt Q13283 1-139)
Assay: ITC

Sequence of NTF2-like domain of human G3BP1 (residues 1-139) (Q13283 1-139): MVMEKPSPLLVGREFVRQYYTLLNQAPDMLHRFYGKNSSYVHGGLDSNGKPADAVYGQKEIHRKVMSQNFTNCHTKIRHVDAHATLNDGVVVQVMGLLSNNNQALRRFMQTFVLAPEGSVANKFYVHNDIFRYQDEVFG

B1: SARS-CoV-2 N_(1–25) peptide (residues 1-25 of the N protein) (peptide)
peptide: MSDNGPQNQRNAPRITFGGPSDSTG
Question: B1 was tested. Which dH did it give?
Answer: -17.6 kcal/mol

Reference: paper PMC8882607 (Journal of Molecular Biology, 2022)
